US20240279325A1 (Chugai, published 2024)
Residue numbers refer to the chain shown, from its start. Where two headings read alike, the source gives them in different places. Each block holds one binder with its values, some of them ahead of it.

Experiments:
[1] = biological target: T1, FcγRIa extracellular domain, C-terminal His tag (human, UniProt P12314 16-292); experiment: SPR (Biacore), antibody captured on chip, FcγR extracellular domain as analyte, 25 C
T1 construct: extracellular domain; not shown: His tag at the C terminus
T1 sequence (P12314 16-292): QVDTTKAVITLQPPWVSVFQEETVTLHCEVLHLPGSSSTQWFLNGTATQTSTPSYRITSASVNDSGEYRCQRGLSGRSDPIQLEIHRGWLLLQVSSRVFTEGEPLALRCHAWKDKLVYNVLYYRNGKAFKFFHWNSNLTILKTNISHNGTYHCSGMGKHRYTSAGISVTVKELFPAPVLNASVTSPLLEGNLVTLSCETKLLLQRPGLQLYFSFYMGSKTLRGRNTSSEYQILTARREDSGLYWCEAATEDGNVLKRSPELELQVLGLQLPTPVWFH

[2] = biological target: T2, human FcγRIIIa type V (allotype V158) extracellular domain with C-terminal His tag (human, UniProt P08637 17-208); experiment: SPR (Biacore), captured antibody, FcγR analyte
T2 construct: also called FcγRIIIaV; FcγRIIIa V type
T2 sequence (P08637 other isoform, or with tags, fused parts or gaps): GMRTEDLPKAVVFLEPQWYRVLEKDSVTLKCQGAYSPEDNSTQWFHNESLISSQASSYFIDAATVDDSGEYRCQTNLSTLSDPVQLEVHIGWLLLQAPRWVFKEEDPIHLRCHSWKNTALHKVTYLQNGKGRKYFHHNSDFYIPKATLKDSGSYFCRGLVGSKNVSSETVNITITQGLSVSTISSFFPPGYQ

[3] = biological target: T3, FcγRIa extracellular domain with C-terminal His tag (human, UniProt P12314 16-292); experiment: SPR (Biacore), antibody captured, FcγR as analyte
T3 construct: extracellular domain
T3 sequence (P12314 16-292): as the sequence (P12314 16-292) above

[4] = biological target: T4, FcγRIIIa type V (allotype V158) extracellular domain with C-terminal His tag (human, UniProt P08637 17-208); experiment: SPR (Biacore), antibody captured, FcγR as analyte
T4 construct: extracellular domain; also called FcγRIIIaV; FcγRIIIa V type
T4 sequence (P08637 17-208 F176V): as the sequence (P08637 other isoform, or with tags, fused parts or gaps) above, with S179A counted along it

[5] = biological target: T5, FcγRIIa type R (allotype R131) extracellular domain with C-terminal His tag (human, UniProt P12318 34-217); experiment: SPR (Biacore), antibody captured, FcγR as analyte
T5 construct: extracellular domain; also called FcγRIIaR; FcγRIIa R type
T5 sequence (looked up): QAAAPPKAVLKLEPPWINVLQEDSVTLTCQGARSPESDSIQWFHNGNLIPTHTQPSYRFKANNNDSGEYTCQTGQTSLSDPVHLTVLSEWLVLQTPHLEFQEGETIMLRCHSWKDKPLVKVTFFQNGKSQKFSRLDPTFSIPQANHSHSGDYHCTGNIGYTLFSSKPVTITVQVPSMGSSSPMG

[6] = biological target: T6, FcγRIIb extracellular domain with C-terminal His tag (human, UniProt P31994 43-217); experiment: SPR (Biacore), antibody captured, FcγR as analyte
T6 construct: extracellular domain
T6 sequence (looked up): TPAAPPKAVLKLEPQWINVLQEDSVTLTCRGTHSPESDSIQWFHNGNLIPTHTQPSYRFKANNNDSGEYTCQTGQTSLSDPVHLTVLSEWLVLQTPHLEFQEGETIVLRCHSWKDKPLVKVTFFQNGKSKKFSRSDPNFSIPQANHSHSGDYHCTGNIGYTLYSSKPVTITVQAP

[7] = biological target: T7, human FcγRIIa type H (allotype H131) extracellular domain with C-terminal His tag (human, UniProt P12318 34-217); experiment: SPR (Biacore), antibody captured, FcγR analyte
T7 construct: extracellular domain; also called FcγRIIaH; not shown: His tag at the C terminus
T7 sequence (looked up): T5 sequence (looked up) with R134H

[8] = biological target: T8, human FcγRIIb extracellular domain with C-terminal His tag (human, UniProt P31994 43-217); experiment: SPR (Biacore), antibody captured, FcγR analyte
T8 construct: extracellular domain; not shown: His tag at the C terminus
T8 sequence (looked up): T6 sequence (looked up)

[9] = biological target: T9, human FcRn (human, UniProt P55899 24-290; P61769 21-119, limits assumed); experiment: SPR Biacore, pH 7.0
T9 construct: also called human neonatal Fc receptor
Method: (§1) The binding between the antibody and human FcRn under a neutral condition (pH 7.0) was analyzed with a BIACORE™ system.

[10] = biological target: T10, human FcγRIIa type H (allotype H131) extracellular domain with C-terminal His tag (human, UniProt P12318 34-217); experiment: SPR (Biacore), captured antibody, FcγR analyte
T10 construct: also called FcγRIIaH
T10 sequence: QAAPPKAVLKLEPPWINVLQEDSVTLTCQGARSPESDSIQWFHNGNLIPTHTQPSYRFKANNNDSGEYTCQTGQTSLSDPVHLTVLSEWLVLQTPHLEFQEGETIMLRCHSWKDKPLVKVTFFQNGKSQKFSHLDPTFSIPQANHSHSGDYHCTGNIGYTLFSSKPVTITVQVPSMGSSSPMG

[11] = biological target: T11, human FcγRIIa type R (allotype R131) extracellular domain with C-terminal His tag (human, UniProt P12318 34-217); experiment: SPR (Biacore), captured antibody, FcγR analyte
T11 construct: also called FcγRIIaR
T11 chain: T10 sequence with H133R

[12] = biological target: T12, human FcRn (human, UniProt P55899 24-290; P61769 21-119, limits assumed); experiment: SPR (Biacore), pH 7.0
T12 construct: also called hFcRn
Method: as §1

[13] = biological target: T13, human FcγRIIb extracellular domain with C-terminal His tag (human, UniProt P31994 43-217); experiment: ratio of SPR KDs (FcγRIIaR over FcγRIIb)
T13 sequence: T6 sequence (looked up)

[14] = biological target: T13, human FcγRIIb extracellular domain with …; experiment: ratio of SPR KDs, reference IL6R-B3/IL6R-L
[15] = biological target: T11, human FcγRIIa type R (allotype R131) …; experiment: ratio of SPR KDs, reference IL6R-B3/IL6R-L
[16] = biological target: T13, human FcγRIIb extracellular domain with …; experiment: SPR (Biacore), captured antibody, FcγR analyte
[17] = biological target: T10, human FcγRIIa type H (allotype H131) …; experiment: SPR (Biacore), captured antibody, FcγR analyte; remark: listed apart in the source
[18] = biological target: T11, human FcγRIIa type R (allotype R131) …; experiment: SPR (Biacore), captured antibody, FcγR analyte
[19] = biological target: human FcγRIa extracellular domain with C-terminal His tag (human, UniProt P12314 16-292); experiment: SPR (Biacore), captured antibody, FcγR analyte
Chain of human FcγRIa extracellular domain with C-terminal His tag (P12314 16-292): as the sequence (P12314 16-292) above

[20] = biological target: T2, human FcγRIIIa type V (allotype V158) …; experiment: SPR (Biacore), captured antibody, FcγR analyte; remark: listed apart in the source
[21] = biological target: T14, FcγRIIb extracellular region (human, UniProt P31994 43-217); experiment: SPR (Biacore), ratio of KD values
T14 construct: extracellular domain; for crystals expressed with kifunensine and trimmed with Endo F1; also called human FcγRIIb
T14 sequence (looked up): T6 sequence (looked up)

[22] = biological target: T15, FcγRIIaR extracellular region (human, UniProt P12318 34-217); experiment: SPR (Biacore), ratio of KD values
T15 construct: extracellular domain; also called FcγRIIa type R; FcγRIIa allotype R131
T15 sequence (looked up): T5 sequence (looked up)

Kd [1]: 20 nM
B1: IL6R-BP182/IL6R-L (antibody, human IgG1, kappa, name in EU numbering)
heavy: QVQLQESGPGLVKPSETLSLTCAVSGHSISHDHAWSWVRQPPGEGLEWIGFISYSGITNYNPSLQGRVTISRDNSKNTLYLQMNSLRAEDTAVYYCARSLARTTAMDYWGEGTLVTVSSASTKGPSVFPLAPSSKSTSGGTAALGCLVKDYFPEPVTVSWNSGALTSGVHTFPAVLQSSGLYSLSSVVTVPSSSLGTQTYICNVNHKPSNTKVDKKVEPKSCDKTHTCPPCPAPDLLGGDSVFLFPPKPKDTLMISRTPEVTCVVVDVSHEDGEVKFNWYVDGVEVHNAKTKPREEQDNSTYRVVSVLTVLHQDWLNGKEYKCKVSNKALPKPIEKTISKAKGQPREPQVYTLPPSRDELTKNQVSLTCLVKGFYPSDIAVEWESNGQPENNYKTTPPVLDSDGSFFLYSKLTVDKSRWQQGNVFSCSVMHEALHNHYTQESLSLSP
light: not shown
notes: copies: 2 + 2

Kd [2]: 9000 nM
B2: IL6R-BP462/IL6R-L (antibody, human IgG1, kappa, name in EU numbering)
heavy: B1 heavy with G239D, S269A, H270E, D298Y, K332R, P398V
light: not shown
notes: copies: 2 + 2

Kd [3]: 0.0067 nM
Kd [4]: 3600 nM
Kd [5]: 2.1 nM
Kd [6]: 11 nM
B3: IL6R-BP253/IL6R-L (antibody, human IgG1, kappa, name in EU numbering)
heavy: B1 heavy with D235E, D240P, S269E, G273P, D298Y, L330F, K332A
light: not shown
notes: comparison control with existing alterations; copies: 2 + 2

Kd [7]: 92000 nM
Kd [8]: 54 nM
B4: IL6R-BP202/IL6R-L (antibody, human IgG1, kappa, name in EU numbering)
heavy: B1 heavy with D235E, G239D, D298Y, K328A, K332R
light: not shown
notes: EU numbering; copies: 2 + 2

Kd [9]: 110 nM
B5: F414 (antibody, human IgG1, kappa)
heavy: B1 heavy with D235E, D240P, P259V, G273P, D298Y, T309S, K332A, M430L, N436Y, E441K
light: not shown
notes: copies: 2 + 2

Kd [10]: 10000 nM
B6: IL6R-BP470/IL6R-L (antibody, human IgG1, kappa, name in EU numbering)
heavy: B1 heavy with G239D, H270D, K332R, E335T
light: not shown
notes: copies: 2 + 2

Kd [11]: 3000 nM
B7: IL6R-BP514/IL6R-L (antibody, human IgG1, kappa, name in EU numbering)
heavy: B1 heavy with G239D, H270E, E274F, D298Y, K332A
light: not shown
notes: copies: 2 + 2

Kd [12]: 28 nM
B8: F554 (antibody, human IgG1, kappa)
heavy: QVQLQESGPGLVKPSETLSLTCAVSGHSISHDHAWSWVRQPPGEGLEWIGFISYSGITNYNPSLQGRVTISRDNSKNTLYLQMNSLRAEDTAVYYCARSLARTTAMDYWGEGTLVTVSSASTKGPSVFPLAPSSKSTSGGTAALGCLVKDYFPEPVTVSWNSGALTSGVHTFPAVLQSSGLYSLSSVVTVPSSSLGTQTYICNVNHKPSNTKVDKKVEPKSCDKTHTCPPCPAPELLGGPKVFLFPPKPKDTLYITRTPEVTCVVVDVSHEDPEVKFNWYVDGVEVHNAKTKPREEQYNSTYRVVSVLTPLHQDWLNGKEYKCKVSNKALPAPIEKTISKAKGQPREPQVYTLPPSRDELTKNQVSLTCLVKGFYPSDIAVEWESNGQPENNYKTTPPVLDSDGSFFLYSKLTVDKSRWQQGNVFSCSVMHEALHYHYTQKSLSLSP
light: not shown
notes: copies: 2 + 2

KD(IIaR)/KD(IIb) [13]: 28
KD(IIb) of parent polypeptide/KD(IIb) of altered polypeptide [14]: 161
KD(IIaR) of parent polypeptide/KD(IIaR) of altered polypeptide [15]: 2
Kd [16]: 19 nM
Kd [17]: 6700 nM
Kd [18]: 540 nM
Kd [19]: 7.7 nM
Kd [20]: 35000 nM
B9: IL6R-BP478/IL6R-L (antibody)
heavy: QVQLQESGPGLVKPSETLSLTCAVSGHSISHDHAWSWVRQPPGEGLEWIGFISYSGITNYNPSLQGRVTISRDNSKNTLYLQMNSLRAEDTAVYYCARSLARTTAMDYWGEGTLVTVSSASTKGPSVFPLAPCSRSTSESTAALGCLVKDYFPEPVTVSWNSGALTSGVHTFPAVLQSSGLYSLSSVVTVPSSSLGTKTYTCNVDHKPSNTKVDKRVESKYGPPCPPCPAPDLLGDDSVFLFPPKPKDTLMISRTPEVTCVVVDVSDEDGEVKFNWYVDGVEVHNAKTKPREEQDNSTYRVVSVLTVLHQDWLNGKEYKCKVSNKALPRPIEKTISKAKGQPREPQVYTLPPSRDELTKNQVSLTCLVKGFYPSDIAVEWESNGQPENNYKTTPPVLDSDGSFFLYSKLTVDKSRWQQGNVFSCSVMHEALHNHYTQESLSLSP
light: not shown
notes: copies: 2 + 2

fold binding relative to IL6R-BP230/IL6R-L [21]: 1.1 times
fold binding relative to IL6R-BP230/IL6R-L [22]: 0.9 times
B10: IL6R-BP478/IL6R-L (antibody)
heavy: B9 heavy
light: not shown
notes: copies: 2 + 2
